Article PMC4772073

Target: dUltramarine2
Assay: SEC; gel filtration chromatography; conditions not given in the main text (Supplementary Fig. 7)

- stoichiometry N: 2
Substance: dUltramarine2
